This assay deals with Mayaro virus E1-E2 heterodimer on the VLP (Mayaro virus) (UniProt Q8QZ72). In words: cryo-EM structure; single-particle averaging with icosahedral (I1) reconstruction of purified MAYV VLPs, ~1-2 mg/mL in STE buffer, vitrified at 4 °C; final resolution 4.5 Å.

Take “Mayaro virus E1-E2 heterodimer on the VLP (from UniProt Q8QZ72 807-1242) (complex)”: the stoichiometry N was determined as 3.

The record behind these values is publication PMC11652679.
